Values quoted from earlier work as cited in article PMC4322731.

Target: Cys12 (UniProt position 13, SVLFVCLGNIC)
Conditions: not stated (discussed as the resting-state thiolate form of the free enzyme)

Bovine heart low molecular weight protein tyrosine phosphatase (BHPTP, LMW-PTP, class II PTP) (Bos taurus)
pKa: less than 4
